Measured values published in article PMC10433801.

These substances were tested against CsrA-H6 (Salmonella Typhimurium / Escherichia coli (sequences stated identical)) (UniProt P69913) (assay: EMSA). Conditions: RNA EMSA: 10 mM Tris-HCl pH 7.5, 10 mM MgCl2, 100 mM KCl, 200 ng/uL yeast RNA, 0.2 mg/mL BSA, 7.5% glycerol, 20 mM DTT, 37 C 30 min; DNA EMSA: 10 mM Tris pH ….
Sequence of CsrA-H6 (Salmonella Typhimurium / Escherichia coli (sequences stated identical)) (UniProt P69913) (P69913 whole entry): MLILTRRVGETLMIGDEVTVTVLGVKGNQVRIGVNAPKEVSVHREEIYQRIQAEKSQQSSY
Substance “GGGACAAAAAAUUGCCACGAUGACGGCAGUUUCAGUGGAGACGGUGAGCAAUGAAUAAAGAACGCAUUAUUCAGGAAUUUGUGCCGGGCAAACAGGUC [eutS RNA (-47 to +48)]” has a Kd of 5.7 nM.
In the case of “GGGACUUUUUAUCAGGGCCAGGAUAAUGGUAAUAAAAAGUGAAUGUAAAUAAUGUGUUUUGUUUAUAACAAUAAAUUAACUGAGGGGUUUUAUCAUG [pocR RNA (-91 to +3)]”, the Kd is reported as 7.4 nM.
For “GGGUUCUUAUAGUCCCAACUAUCGGAACACUCCAUGCGAGGUCUUUAUGCAACAAGAAGCACUAGGAAUGGUAGAAACCAAAGG [pduA RNA (-44 to +38)]”, the Kd was 31 nM.

The substances below were run on CsrA-H6 (Salmonella Typhimurium / Escherichia coli (sequences stated identical)) (assay: EMSA). Conditions: 10 mM MgCl2; yeast RNA 200 ng/uL; apparent Kd; RNA EMSA: 10 mM Tris-HCl pH 7.5, 10 mM MgCl2, 100 mM KCl, 200 ng/uL yeast RNA, 0.2 mg/mL BSA, 7.5% glycerol, 20 mM DTT, 37 C 30 min; DNA EMSA: 10 mM Tris pH ….
In the case of eutS RNA (-47 to +48), the Kd is reported as 5.7 nM.
pduA RNA (-44 to +38) was tested, and the Kd was 31 nM.
Work on pocR RNA (-91 to +3) yielded a Kd of 7.4 nM.
